Source: patent publication US20220211037A1, “BIOSENSORS FOR DROUGHT STRESS IN PLANTS” (The Regents of the University of California, priority 2019, published 2022)

Tests used:
[1] = target: 1:1 mixture of PYL3 containing PYL3-Cy5.5 and PYL3-BHQ3 (Arabidopsis thaliana); assay: calculated from static light scattering of the mixture, 1000 µM ABA
[2] = target: 1:1 mixture of PYL3 containing PYL3-Cy5.5 and PYL3-BHQ3 (Arabidopsis thaliana); assay: Cy5.5 fluorescence of the PYL3-Cy5.5/PYL3-BHQ3 mixture (quenched in dimers), 1.0 µM ABA
[3] = target: 1:1 mixture of PYL3 containing PYL3-Cy5.5 and PYL3-BHQ3 (Arabidopsis thaliana); assay: Cy5.5 fluorescence of the PYL3-Cy5.5/PYL3-BHQ3 mixture (quenched in dimers), 100 µM ABA
[4] = target: 1:1 mixture of PYL3 containing PYL3-Cy5.5 and PYL3-BHQ3 (Arabidopsis thaliana); assay: Cy5.5 fluorescence of the PYL3-Cy5.5/PYL3-BHQ3 mixture (quenched in dimers), 40 µM ABA
[5] = target: 1:1 mixture of PYL3 containing PYL3-Cy5.5 and PYL3-BHQ3 (Arabidopsis thaliana); assay: static light scattering of the PYL3-Cy5.5/PYL3-BHQ3 mixture, 0.1 µM ABA
[6] = target: 1:1 mixture of PYL3 containing PYL3-Cy5.5 and PYL3-BHQ3 (Arabidopsis thaliana); assay: static light scattering of the PYL3-Cy5.5/PYL3-BHQ3 mixture, 1000 µM ABA
[7] = target: 1:1 mixture of PYL3 containing PYL3-Cy5.5 and PYL3-BHQ3 (Arabidopsis thaliana); assay: calculated from static light scattering of the mixture, 40 µM ABA
[8] = target: 1:1 mixture of PYL3 containing PYL3-Cy5.5 and PYL3-BHQ3 (Arabidopsis thaliana); assay: static light scattering of the PYL3-Cy5.5/PYL3-BHQ3 mixture, 1.0 µM ABA
[9] = target: 1:1 mixture of PYL3 containing PYL3-Cy5.5 and PYL3-BHQ3 (Arabidopsis thaliana); assay: calculated from static light scattering of the mixture, 100 µM ABA
[10] = target: 1:1 mixture of PYL3 containing PYL3-Cy5.5 and PYL3-BHQ3 (Arabidopsis thaliana); assay: calculated from static light scattering of the mixture, 1.0 µM ABA
[11] = target: 1:1 mixture of PYL3 containing PYL3-Cy5.5 and PYL3-BHQ3 (Arabidopsis thaliana); assay: Cy5.5 fluorescence of the PYL3-Cy5.5/PYL3-BHQ3 mixture (quenched in dimers), 0.1 µM ABA
[12] = target: 1:1 mixture of PYL3 containing PYL3-Cy5.5 and PYL3-BHQ3 (Arabidopsis thaliana); assay: static light scattering of the PYL3-Cy5.5/PYL3-BHQ3 mixture, 40 µM ABA
[13] = target: 1:1 mixture of PYL3 containing PYL3-Cy5.5 and PYL3-BHQ3 (Arabidopsis thaliana); assay: static light scattering of the PYL3-Cy5.5/PYL3-BHQ3 mixture, 100 µM ABA
[14] = target: 1:1 mixture of PYL3 containing PYL3-Cy5.5 and PYL3-BHQ3 (Arabidopsis thaliana); assay: calculated from static light scattering of the mixture, 0.1 µM ABA
[15] = target: 1:1 mixture of PYL3 containing PYL3-Cy5.5 and PYL3-BHQ3 (Arabidopsis thaliana); assay: Cy5.5 fluorescence of the PYL3-Cy5.5/PYL3-BHQ3 mixture (quenched in dimers), 1000 µM ABA

- PYLs in dimers (hetero- and homodimers, %) [1]: 20%
- PYLs in monomers (%) [1]: 80%
- Fluorescence (measured) [2]: 4290 cps
- Fluorescence (measured) [3]: 6710 cps
- Fluorescence (measured) [4]: 5300 cps
- Average molar mass (measured, amu) [5]: 51100 amu
- Average molar mass (measured, amu) [6]: 31100 amu
- PYLs in dimers (hetero- and homodimers, %) [7]: 68%
- PYLs in monomers (%) [7]: 32%
- Average molar mass (measured, amu) [8]: 47400 amu
- PYLs in dimers (hetero- and homodimers, %) [9]: 32%
- PYLs in monomers (%) [9]: 68%
- PYLs in dimers (hetero- and homodimers, %) [10]: 84%
- PYLs in monomers (%) [10]: 16%
- Fluorescence (measured) [11]: 3960 cps
- Average molar mass (measured, amu) [12]: 43300 amu
- Average molar mass (measured, amu) [13]: 34000 amu
- PYLs in dimers (hetero- and homodimers, %) [14]: 98%
- PYLs in monomers (%) [14]: 2%
- Fluorescence (measured) [15]: 9490 cps
Substance: 1:1 mixture of PYL3 containing PYL3-Cy5.5 and PYL3-BHQ3
